Patent US20170369590A1 (Genmab, published 2017)

Assays:
HER2ECDHis [1] = target: T1, HER2ECDHis (human, UniProt P04626 23-653, biotinylated in the cross-block ELISA (sites not given)); assay: ELISA; competitor 025
T1 construct: range 1-653; expressed in HEK-293F; also called soluble HER2; biotinylated HER2ECDHis

HER2ECDHis [2] = target: T1, HER2ECDHis; assay: ELISA; competitor 050
Protocol: (§1) Next, the ELISA wells were washed with PBST (PBS supplemented with 0.05% Tween-20 [Sigma-Aldrich, Zwijndrecht, The Netherlands]) and blocked for one hour at room temperature (RT) with PBSTC (PBST supplemented 2% [v/v] chicken serum [Gibco, Paisley, Scotland]). The ELISA wells were then washed with PBST and incubated for one hour at RT with HER2ECDHis serially diluted in PBSTC (0.25-2 μg/mL in 2-fold dilutions). […] The plate was thereafter washed with PBST and incubated for one hour with 0.1 μg/mL Streptavidin-poly-HRP (Sanquin, Amsterdam, The Netherlands) diluted in PBST. After washing, the reaction was visualized through a 15 minutes incubation with 2,2′-azino-bis (3-ethylbenzothiazoline-6-sulfonic acid) (ABTS: one ABTS tablet diluted in 50 mL ABTS buffer (Roche Diagnostics, Almere, The Netherlands)) at RT protected from light. The colorization was stopped by adding an equal volume of oxalic acid (Sigma-Aldrich, Zwijndrecht, The Netherlands). Fluorescence at 405 nm was measured on a microtiter plate reader (Biotek Instruments, Winooski, USA).
(§2) Each HER2 antibody was coated to the ELISA wells at the sub-optimal dose that was determined as described above. After blocking of the ELISA wells, the wells were incubated with the predetermined concentration of 1 μg/mL biotinylated HER2ECDHis in the presence or absence of an excess of a second (competitor) HER2 antibody. The ELISA was then performed as described above. […] Percentage competition was then determined as 100 minus the percentage of inhibition.

HER2ECDHis [3] = target: T1, HER2ECDHis; assay: ELISA; competitor 084
Protocol: as §1, §2

HER2ECDHis [4] = target: T1, HER2ECDHis; assay: ELISA; competitor 091
Protocol: as §1, §2

HER2ECDHis [5] = target: T1, HER2ECDHis; assay: ELISA; competitor 098
Protocol: as §1, §2

HER2ECDHis [6] = target: T1, HER2ECDHis; assay: ELISA; competitor 129
Protocol: as §1, §2

HER2ECDHis [7] = target: T1, HER2ECDHis; assay: ELISA; competitor 153
Protocol: as §1, §2

HER2ECDHis [8] = target: T1, HER2ECDHis; assay: ELISA; competitor 169
Protocol: as §1, §2

HER2ECDHis [9] = target: T1, HER2ECDHis; assay: ELISA; competitor pert
Protocol: as §1, §2

HER2ECDHis [10] = target: T1, HER2ECDHis; assay: ELISA; competitor tras
Protocol: as §1, §2

[11] = target: T2, human epidermal growth factor receptor 2 (HER2), membrane-bound on cells (human, UniProt P04626 23-1255); assay: cell-based or functional assay
[12] = target: T2, human epidermal growth factor receptor …; assay: cell-based or functional assay; remark: listed apart in the source
[13] = target: T2, human epidermal growth factor receptor …; assay: cell-based or functional assay; remark: listed apart in the source
HER2ECDHis [14] = target: T1, HER2ECDHis; assay: ELISA; competitor C1
Protocol: as §1, §2

HER2ECDHis [15] = target: T1, HER2ECDHis; assay: ELISA; competitor F5
Protocol: as §1, §2

HER2ECDHis [16] = target: T1, HER2ECDHis; assay: ELISA; competitor 127
Protocol: as §1, §2

HER2ECDHis [17] = target: T1, HER2ECDHis; assay: ELISA; competitor 132
Protocol: as §1, §2

HER2ECDHis [18] = target: T1, HER2ECDHis; assay: ELISA; competitor 159
Protocol: as §1, §2

Binder | % binding vs no competitor (HER2ECDHis [1]) [%] | % binding vs no competitor (HER2ECDHis [2]) [%] | % binding vs no competitor (HER2ECDHis [3]) [%] | % binding vs no competitor (HER2ECDHis [4]) [%] | % binding vs no competitor (HER2ECDHis [5]) [%] | % binding vs no competitor (HER2ECDHis [6]) [%] | % binding vs no competitor (HER2ECDHis [7]) [%] | % binding vs no competitor (HER2ECDHis [8]) [%] | % binding vs no competitor (HER2ECDHis [9]) [%] | % binding vs no competitor (HER2ECDHis [10]) [%] | % cells killed, AU565, anti-kappa-ETA'-conjugated [11] [%] | EC50 of cell kill, AU565, anti-kappa-ETA'-conjugated [11] [µg/mL] | % cells killed, A431, anti-kappa-ETA'-conjugated [12] [%] | EC50 of cell kill, A431, anti-kappa-ETA'-conjugated [12] [µg/mL] | EC50, fab-CypHer5E internalization, AU565 [13] [µg/mL] | Maximal MFI, fab-CypHer5E internalization, AU565 [13] [MFI] | other results
HuMab 129 (antibody, V domains shown) VH: QVQLVESGGGVVQPGRSLRLSCAASGFTFSTFAIHWVRQAPGKGLEWVAVISYDGGHKFYADSVKGRFTISRDNSKNTLYLQMNSLRAEDTAMYYCARGLGVWGAFDYWGQGTLVTVSS VL: EIVLTQSPATLSLSPGERATLSCRASQSVSSYLAWYQQKPGQAPRLLIYDASNRATGIPARFSGSGSGTDFTLTISSLEPEDFAVYYCQQRSNWWTFGQGTKVEIK | 55 | 97 | 92 | 76 | 106 | 12 | 98 | 99 | 22 | 93 | 60.8 | 0.0309 | 75.9 | ~0.0106 | 0.00715 | 60300 | 
HuMab 169 (antibody, V domains shown, also called TH1014-169; PC1014-169) VH: QVQLVQSGAEVKKPGASVKVSCKASGYTFTNYGISWVRQAPGQGLEWMGWLSAYSGNTIYAQKLQGRVTMTTDTSTTTAYMELRSLRSDDTAVYYCARDRIVVRPDYFDYWGQGTLVTVSS VL: EIVLTQSPATLSLSPGERATLSCRASQSVSSYLAWYQQKPGQAPRLLIYDASNRATGIPARFSGSGSGTDFTLTISSLEPEDFAVYYCQQRSNWPRTFGQGTKVEIK | 98 | 21 | 73 | 105 | 105 | 106 | 102 | 45 | 101 | 19 | 49.9 | 0.0356 | 34 |  |  | 38800 | 
HuMab 084 (antibody, V domains shown, also called TH1014-084; PC1014-084) VH: QVQLVQSGAEVKKPGSSVKVSCKASGGTFRTYAINWVRQAPGQGLEWMGRINTVLGIVNHAQKFQGRVTITADKSTNTAYMELNSLRSEDTAVYYCAREKGVDYYYGIEVWGQGTTVTVSS VL: DIQMTQSPSSVSASVGDRVTITCRASQGISSWLAWYQHKPGKAPKLLIYVASTLQSGVPSRFSGSGSGTDFTLTISSLQPEDFATYYCQQANSFPLTFGGGTKVEIK | 106 | 76 | 20 | 104 | 109 | 104 | 98 | 73 | 101 | 74 | 58.1 | 0.027 | 50.5 |  | 0.0305 | 71100 | 
HuMab 025 (antibody, V domains shown, also called TH1014-025; PC1014-025) VH: QVQLQQWGAGLLKPSETLSLTCAVYGGSFSDYYWNWIRQPPGKGLEWIGEIHHSGSTNYNPSLKSRVTISVDTSKNQFSLKLSSVTAADTAVYYCARGYYDSGVYYFDYWAQGTLVTVSS VL: DIQMTQSPSSLSASVGDRVTITCRASQGISRWLAWYQQKPEKAPKSLIYAASSLRSGVPSRFSGSGSGTDFTLTISSLQPEDFATYYCQQYNSYPITFGQGTRLEIK | 18 | 100 | 104 | 21 | 102 | 15 | 99 | 98 | 8 | 98 | 60 | 0.0167 | 86.7 | ~0.00977 | 0.0301 | 63400 | 
HuMab 050 (antibody, V domains shown, also called TH1014-050; PC1014-050) VH: EVQLLESGGGLVQPGGSLRLSCAASGFTFSSYAMNWVRQAPGKGLEWVSAISGRGGTTYYADSVKGRFTISRDNSKNTLYLQMSSLRAEDTAVYYCAKARANWDYFDYWGQGTLVTVSS VL: DIQMTQSPSSVSASVGDRVTITCRASQGISSWLAWYQHKPGKAPKLLIYAASILQSGVPSRFSGSGSGTDFTLTISSLQPEDFATYYCQQANSFPITFGQGTRLEIK | 104 | 12 | 74 | 98 | 102 | 110 | 104 | 30 | 95 | 13 | 52.4 | 0.0127 |  |  |  |  | 
HuMab 091 (antibody, V domains shown, also called TH1014-091; PC1014-091) VH: QVQLQQWGAGLLKPSETLSLTCAVSGGSFSGYYWTWIRQPPGKGLEWIGEIYHSGDTNYNPSLKSRVTISVDTSKNQFSLKLYSVTAADTAVYYCARLYFGSGIYYLDYWGQGTLVTVSS VL: DIQMTQSPSSLSASVGDRVTITCRASQGISSWLVWYQQKPEKAPKSLIYAASSLQSGVPSRFSGSGSGTDFTLTISSLQPEDFATYYCQQYNSFPPTFGQGTKVEIK | 13 | 95 | 100 | 15 | 98 | 78 | 98 | 99 | 5 | 99 | 50.6 | 0.0465 | 83.3 | ~0.00986 | 0.033 | 50700 | 
HuMab 127 (antibody, V domains shown) VH: EVQLVQSGAEVKKPGESLTISCKGSGYSFSIYWIGWVRQMPGKGLEWMGIIFPGDSDIRYSPSFQGQVTISADKSISTAYLQWSSLKASDTAMYYCARQPGDWSPRHWYFDLWGRGTLVTVSS VL: VIWMTQSPSLLSASTGDRVTISCRMSQGISSYLAWYQQKPGKAPELLIYAASTLQSGVPSRFSGSGSGTDFTLTISYLQSEDFATYYCQQYYSFPLTFGGGTKVEIK |  |  |  |  | 58 |  | 21 |  |  | 102 | 69 | 0.0345 |  |  | ~0.00968 | 138000 | % binding vs no competitor (HER2ECDHis [14]): 112%; % binding vs no competitor (HER2ECDHis [15]): 88%; % binding vs no competitor (HER2ECDHis [16]): 11%; % binding vs no competitor (HER2ECDHis [17]): 44%; % binding vs no competitor (HER2ECDHis [18]): 8%
